Data reported in patent US20210379068A1, “METHODS AND MATERIALS FOR TREATING NEUROPSYCHIATRIC DISORDERS” (Mayo Foundation for Medical Education and Research, priority 2018, published 2021).

B1: Cxcl1: Recombinant CXCL1 (Peprotech, #250-11) injected i.p. into lean mice (protein, UniProt P12850 25-96, looked up)
Growth-regulated alpha protein: APIANELRCQCLQTMAGIHLKNIQSLKVLPSGPHCTQTEVIATLKNGREACLDPEAPLVQKIVQKMLKGVPK

Legend:
Type in all cases: in vivo, mouse
obese C57BL/6 mice [1] = assay: Open field test, HFD mice treated with Reparixin; settings: HFD C57BL/6 mice; Reparixin 30 mg/kg s.c. twice per day for 2 weeks vs non-treated
Protocol: (§1) Reparixin L-lysine salt (MedChemExpress, #HY-15252) or L-Lysine hydrochloride (MedChemExpress, #HY-N0470) was dissolved in H2O was administered to obese C57BL/6 mice (fed for 2 months with high-fat diet) via subcutaneous injection (30 mg/kg) twice per day for 2 weeks. 2 hours after the last injection mice were tested in open field and elevated plus maze and afterwards dissected. Locomotor activity and anxiety-like behavior of mice were assessed in sound-insulated, rectangular activity chambers (Med Associates Inc., St Albans, Vt., USA: W×L×D=27 cm×27 cm×20 cm with continually running fans, infrared lasers, and sensors). Beam breaks were assessed in 2-minute bins over 30 minutes, converted automatically to current mouse location and distance travelled (cm), and recorded on a computer with Med-PC software Version 4.0. Before the test, mice were acclimatized to the room for 1-1.5 hours before being introduced into the chambers. Mice were habituated for 5 minutes in the Open Field chamber (without recording) then placed for another 5 minutes in the home cage. Afterwards, mice were introduced back to the chambers and all mouse movements were recorded for 30 minutes. Anxiety was quantified by the distance mice travelled in the central 25% of the chamber (zone 1) as a function of the total distance mice travelled and by frequencies of entries into zone 1.

obese C57BL/6 mice [2] = assay: Elevated plus maze, HFD mice treated with Reparixin; settings: HFD C57BL/6 mice; Reparixin 30 mg/kg s.c. twice per day for 2 weeks vs non-treated
Protocol: (§2) Reparixin L-lysine salt (MedChemExpress, #HY-15252) or L-Lysine hydrochloride (MedChemExpress, #HY-N0470) was dissolved in H2O was administered to obese C57BL/6 mice (fed for 2 months with high-fat diet) via subcutaneous injection (30 mg/kg) twice per day for 2 weeks. 2 hours after the last injection mice were tested in open field and elevated plus maze and afterwards dissected. A grey colored elevated plus maze apparatus was used. Two open arms (25×5 cm) and two closed arms (25×5 cm) were attached at right angles to a central platform (5×5 cm). The apparatus was set 40 cm above the floor. Mice were first acclimatized to the room for 1-1.5 hours. Mice were then placed individually on the central platform with their back to one of the open arms. Before the test, mice were habituated for 1 minute to the maze, then placed back in the home cage for 5 minutes. Mice were tested for 5 minutes during which they could freely explore the apparatus. Tracking software (Ethovision) recognizes mouse head, central body point, and the base of the tail. Anxiety was quantified by frequency of and time spent during head pokes/dips toward open arms. Higher anxiety is indicated by a lower frequency of movement into open arms and less time spent there.

lean C57BL/6 [3] = assay: Elevated plus maze after Cxcl1 injection; settings: Cxcl1 5 μg/kg i.p. daily for 7 days vs vehicle
Protocol: (§3) Recombinant CXCL1 (Peprotech, #250-11) or vehicle (PBS) was administered to lean C57BL/6 via i.p. injection (5 μg/kg in PBS) daily for 7 days. 2 hours after the last injection mice were tested in open field and elevated plus maze and afterwards dissected.
as §2, with “A” for “Reparixin L-lysine salt (MedChemExpress, #HY-15252) or L-Lysine hydrochloride (MedChemExpress, #HY-N0470) was dissolved in H2O was administered to obese C57BL/6 mice (fed for 2 months with high-fat diet) via subcutaneous injection (30 mg/kg) twice per day for 2 weeks. 2 hours after the last injection mice were tested in open field and elevated plus maze and afterwards dissected. A”

lean C57BL/6 [4] = assay: Open field test after Cxcl1 injection; settings: Cxcl1 5 μg/kg i.p. daily for 7 days vs vehicle
Protocol: as §3
as §1, with “Locomotor” for “Reparixin L-lysine salt (MedChemExpress, #HY-15252) or L-Lysine hydrochloride (MedChemExpress, #HY-N0470) was dissolved in H2O was administered to obese C57BL/6 mice (fed for 2 months with high-fat diet) via subcutaneous injection (30 mg/kg) twice per day for 2 weeks. 2 hours after the last injection mice were tested in open field and elevated plus maze and afterwards dissected. Locomotor”

[5] = Circulating Cxcl1 after Cxcl1 injection in lean C57BL/6 mice; settings: Cxcl1 5 μg/kg i.p. daily for 7 days vs vehicle
Protocol: as §3
Serum levels of cytokines: Eotaxin, G-Csf, Tnf-α, Il-6, Ifn-γ, Il-1α, Il-1β, Il-17, Il-2, Kc/Cxcl1, Mcp-1, M-Csf, Mig, Mip-1α, and Mip-1β were determined using a Multiplexing LASER Bead Assay (Mouse Cytokine Array/Chemokine Array 31-Plex (MD31), Eve Technologies; Canada). Blood was withdrawn from mice by punctuation of the sub-mandibular vein at the day of dissection before an animal was sacrificed. 50 μL of serum were shipped to Eve Technologies on dry ice. Due to high variability of data an unbiased elimination of outliers was performed using ROUT's method (Graphpad 7 Prism). The same panel was used to detect SASP in MAF and 50 μl of media was shipped to Eve Technologies on dry ice.

Row | Molecule | behavior in the open field box (obese C57BL/6 mice [1]) | behavior in the EPM (obese C57BL/6 mice [2]) | anxiety-like behavior, EPM (head entries in the open arms) (lean C57BL/6 [3]) | anxiety-like behavior, EPM (head entries in the open arms) (lean C57BL/6 [3]; listed as Cxcl-1) | anxiety-like behavior, open field (distance in the central area) (lean C57BL/6 [4]) | anxiety-like behavior, open field (distance in the central area) (lean C57BL/6 [4]; listed as Cxcl-1) | circulating Cxcl1 in blood plasma [5] | circulating Cxcl1 in blood plasma ([5]; listed as Cxcl-1)
1 | CC(C)Cc1ccc([C@@H](C)C(=O)NS(C)(=O)=O)cc1 [Reparixin] | no difference | no difference |  |  |  |  |  | 
2 | B1 |  |  | no difference | not different | no difference | not different | increased levels | significantly increased
